Measurements reported in paper PMC4027156.
Residue numbers refer to the chain shown, from its start.

What was measured:
Conditions in all cases: BLI in buffer A (5 mM HEPES pH 7.5, 10 mM NaCl), 2.5-10 uM protein; CD with 7.5 or 15 uM ds-(dCdG)6, protein/DNA 0-8, buffer not shown in material; temperature …
[1] = tested on: yabZαE3L (yaba-like disease virus); assay: BLI
[2] = target: T1, caZαPKZ S35A/K56A/P57A S35A;K56A;P57A (Carassius auratus) (UniProt Q7T2M9); assay: CD B-to-Z transition
T1 sequence: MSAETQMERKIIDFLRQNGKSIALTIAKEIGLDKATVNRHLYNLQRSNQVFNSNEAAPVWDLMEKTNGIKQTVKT

[3] = target: T2, caZαPKZ K56A/P57A K56A;P57A (Carassius auratus) (UniProt Q7T2M9); assay: CD B-to-Z transition
T2 sequence: T1 sequence with A35S

[4] = target: T3, caZαPKZ R39A/K56A R39A;K56A (Carassius auratus) (UniProt Q7T2M9); assay: CD B-to-Z transition
T3 sequence: T1 sequence with A35S, R39A, A57P

Sequence | Kd [1] | binding signal (% of WT activity) [2] | binding signal (% of WT activity) [3] | binding signal (% of WT activity) [4]
ATTATATCGCGCGCGCGCGCGCGCGCGCG / CGCGCGCGCGCGCGCGCGCG [biotin-ATTATAT(CG)10 duplex] | 87.2 nM | – | – | –
CGCGCGCGCGCG (double strand) [ds-(dCdG)6] | – | 50 | 50 | 80
